According to PMC8025780 (Biochemistry, 2020):

Target: the molecule itself
Test: SAXS

B1: Staphylococcus aureus GbaA, disulfide cross-linked (oxidized) (natural protein)
chain: MRKDAKENRQRIEEIAHKLFDEEGVENISMNRIAKELGIGMGTLYRHFKDKSDLCYYVIQRDLDIFITHFKQIKDDYHSNYEVMQVSLDYLLQFKIDNKALLQCIEAGNNKLRFYQSAFYQELFDFYYDLFKSDDDTYTKFKTDMLLQSLSTSVFAFQIEHRHISIEAYRNYLLNIYLDEVGRND
modifications: intraprotomer disulfide C55-C104
In the case of B1, the “stoichiometry N” value is reported as 2.
